Experimental data taken from article PMC5003816.

Target: ubiquitin conjugates (MEFs)
Assay: UBQLN2 IP and western blot quantification (primary MEFs)
Details: n = 3; read off a plot

## UBQLN2 (mouse, endogenous, wild type) (from UniProt Q9QZM0) mP520T
  ratio to parent: 1.4
